For four molecules, Kd, koff and kon results are on record in article PMC5338832 (PLoS Pathogens, 2017).

Where a chain is given by its changes, count along the chain named.

What is called Kd is the equilibrium constant for the complex coming apart. A low value points to higher affinity. The term koff denotes the rate constant with which the complex falls apart. Read a low koff as a long-lived complex. One may read the kon as a measure of how fast the partners come together. The low end stands for slower complex formation, the high end for faster complex formation.

For assay [1], the target named is T1, T117v2 epitope-scaffold (synthetic construct (designed scaffold …)).
T1 construct: also called T117v2 scaffold; scaffolded MPER construct; source: expressed and purified as previously described [35]
T1 chain: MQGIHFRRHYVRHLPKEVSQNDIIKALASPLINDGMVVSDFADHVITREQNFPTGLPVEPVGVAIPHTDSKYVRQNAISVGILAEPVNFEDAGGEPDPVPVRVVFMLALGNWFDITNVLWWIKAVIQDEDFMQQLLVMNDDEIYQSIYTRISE
In words: SPR; ProteOn XPR36, GLC chip with amine-coupled capture antibody (Human Antibody Capture Kit) for ligand capture; 1x HBS-EP+ pH 7.4 with 1 mg/ml BSA; Langmuir model; Table 1 heads the IgGs as 'Analyte'. The settings on record: both partners purified. A general note: Surface plasmon resonance follows binding to a sensor surface in real time, without labels.

For assay [2], the target named is T1, T117v2 epitope-scaffold. In words: SPR. The settings on record: both partners purified.

B1: 10E8 IgG mutant 3 (antibody, V domains shown)
VH: EVQLVESGGGLVKPGGSLRLSCSASGFDFDNAWMTWVRQPPGKGLEWVGRITGPGEGWSVDYAAPVEGRFTISRLNSINFLYLEMNNLRMEDSGLYFCARTGKYYDFWSGYPPGEEYFQDWGRGTLVTVSS
VL: SYELTQETGVSVALGDTVTITCEGDSLESHYASWYQKKPGQAPILLFYGDDNRPSGVPDRFSGDADGNEASLTIDGAQAEDDAEYYCSSRDKSGSRLSVFGGGTKLTVL
notes: IgG; also called 10E8 mut 3; copies: 2 + 2
In the assay with T117v2 epitope-scaffold [1], B1 displayed a Kd of 0.379 nM, a koff of 0.000211 s⁻¹ and a kon of 559000 M⁻¹ s⁻¹.

B2: 10E8 IgG mutant 1 (antibody, V domains shown)
VH: B1 VH
VL: B1 VL with D16Q, E23Q, E28R, D50K, D51N, D64S, D66S, E69T, D75S
notes: also called 10E8 mut 1; copies: 2 + 2
In the assay with T117v2 epitope-scaffold [1], B2 had a Kd of 0.0112 nM, a koff of 4e-05 s⁻¹ and a kon of 3.57e+06 M⁻¹ s⁻¹.

B3: 10E8 IgG mutant 2 (antibody, V domains shown)
VH: B1 VH
VL: B1 VL with D50K, D51N, D64S, D66S, D75S
notes: IgG; also called 10E8 mut 2; copies: 2 + 2
Consider B3, for which, in the assay with T117v2 epitope-scaffold [2], the Kd came to 0.0164 nM, the koff is 4.6e-05 s⁻¹ and the kon stood at 2.8e+06 M⁻¹ s⁻¹.

B4: 10E8 IgG mutant 5 (antibody, V domains shown)
VH: B1 VH
VL: B1 VL with D16R, E23R, E28A, Y31A, D50K, D51N, D64S, D66S, E69R, D75S
notes: IgG; also called 10E8 mut 5; copies: 2 + 2
In the assay with T117v2 epitope-scaffold [1], B4 came in with a Kd of 0.123 nM, a koff of 0.00016 s⁻¹ and a kon of 1.3e+06 M⁻¹ s⁻¹.
